What is called kon is the rate constant with which the complex forms. A low value points to slower complex formation. Usually IC50 stands for the concentration needed to halve the response being measured. Read a low IC50 as greater potency in that assay.

Experiment [1] deals with T1, human IL-13 variant (R130Q of SEQ ID NO 1) (human, UniProt P35225 35-146).
T1 construct: Recombinant purified protein (Peprotech for immunisation); also called h IL-13v; hIL-13v
Kind of experiment: SPR (Biacore), captured mAb. As for the experimental part: The BIACORE assay (Biacore, Inc, Piscataway, N.J.) determines the affinity of antibodies with kinetic measurements of on-, off-rate constants. […] All chemicals were obtained from Biacore® AB (Uppsala, Sweden) or otherwise from a different source as described in the text. Approximately 5000 RU of goat anti-mouse IgG, (Fcγ), fragment specific polyclonal antibody (Pierce Biotechnology Inc, Rockford, Ill.) diluted in 10 mM sodium acetate (pH 4.5) was directly immobilized across a CM5 research grade biosensor chip using a standard amine coupling kit according to manufacturer's instructions and procedures at 25 μg/ml. […] Unmodified carboxymethyl dextran without goat anti-mouse IgG in flow cell 1 and 3 was used as the reference surface. For kinetic analysis, rate equations derived from the 1:1 Langmuir binding model were fitted simultaneously to association and dissociation phases of all eight injections (using global fit analysis) with the use of Biaevaluation 4.0.1 software. […] The association and dissociation rate constants, kₒₙ (unit M⁻¹s⁻¹) and koff (unit s⁻¹) were determined under a continuous flow rate of 25 μl/min Rate constants were derived by making kinetic binding measurements at ten different antigen concentrations ranging from 10-200 nM. […] Binding is recorded as a function of time and kinetic rate constants are calculated.

A further experiment has as its target T2, human IL-13 wild type (human, UniProt P35225 35-146).
T2 construct: also called h IL-13; hIL-13 wt
The experiment can be described thus: competition: human IL-13 to human IL-13Rα2, cell surface-based and ELISA-based RBA. Background: ELISA stands for enzyme-linked immunosorbent assay.

T2 sequence (P35225 other isoform, or with tags, fused parts or gaps limits assumed): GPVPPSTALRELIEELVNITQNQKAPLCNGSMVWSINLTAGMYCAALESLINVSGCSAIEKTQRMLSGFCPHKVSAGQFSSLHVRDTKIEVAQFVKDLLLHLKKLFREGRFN
T1 sequence (P35225 35-146 limits assumed, stated change not applied): as the sequence (P35225 other isoform, or with tags, fused parts or gaps limits assumed) above, with R110Q counted along it

B1: 1B6 (antibody, V domains shown)
VH: QVQLKESGPGLVAPSQSLSITCTVSGFSLTGYGVNWVRQPPGKGLEWLGMIWGDERIDYNSALKSRLSITKDNSKSQVFLKMNSLQTDDTGRYFCARDGYFPYAMDYWGQGTSVTVSS
VL: NIVLTQSPASLAVSLGQRATISCRASETVDSYGKSYLHWYQQKPGQPPKLLIYLASNLESGVPARFSGSGSRTDFTLIIDPVEADDAATYYCQQNNEGPRTFGGGTKLEIKR
notes: Murine monoclonal, IgG1κ
For the molecule B1, in experiment [1], the kon stood at 106000 M⁻¹ s⁻¹.

B2: 13C5.5 (antibody, human IgG1, V domains shown)
VH: EVTLRESGPGLVKPTQTLTLTCTLYGFSLSTSDMGVDWIRQPPGKGLEWLAHIWWDDVKRYNPALKSRLTISKDTSKNQVVLKLTSVDPVDTATYYCARTVSSGYIYYAMDYWGQGTLVTVSS
VL: DIQMTQSPSSLSASVGDRVTISCRASQDIRNYLNWYQQKPGKAPKLLIFYTSKLHSGVPSRFSGSGSGTDYTLTISSLQPEDIATYYCQQGNTLPLTFGGGTKVEIK
notes: Humanized; also called humanized 13C5
B2 registered an IC50 with human IL-13 wild type of 1 to 3 nM.

For the origin of these results see patent US20140099313A1 (published 2014).
